According to patent publication US20240182585A1 (CAMBRIDGE ENTERPRISE, published 2024):
Each block holds one binder with its values, some of them ahead of it.

Legend:
[1] = biological target: T1, His-tagged human GFRAL (recombinant soluble GFRAL protein, R&D catalogue no. 9647-GR-050) (human, UniProt Q6UXV0 19-351); test: SPR, antibody captured via anti-human Fc on CM4 chip, His-tagged human GFRAL as analyte, 25 C, 1:1 model
T1 construct: Bought soluble protein; also called Human GFRAL with a 6His tag; GFRAL antigen; not shown: 6His tag
T1 sequence: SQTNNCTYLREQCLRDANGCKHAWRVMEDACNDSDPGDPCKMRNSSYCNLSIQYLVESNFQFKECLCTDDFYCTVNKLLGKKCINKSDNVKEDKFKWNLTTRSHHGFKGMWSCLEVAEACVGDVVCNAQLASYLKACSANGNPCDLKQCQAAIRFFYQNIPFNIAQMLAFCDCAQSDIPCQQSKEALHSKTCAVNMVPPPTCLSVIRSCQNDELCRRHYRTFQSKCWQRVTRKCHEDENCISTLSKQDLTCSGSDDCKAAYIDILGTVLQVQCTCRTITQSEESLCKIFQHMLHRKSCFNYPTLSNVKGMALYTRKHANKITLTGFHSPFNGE
Experimental: (§1) Binding of antibodies to human GFRAL was measured by SPR using His-tagged human GFRAL as analyte, and test antibody coupled to the surface of a CM4 biosensor chip via immobilised anti-human Fc antibody. Running buffer was HBS-P+ buffer pH 7.4 (GE BR100671) with 1 mM CaCl₂. Antibodies were captured for 60 seconds at 1 μg/ml (˜80-140 RU captured, depending on the binder). Analyte (recombinant soluble GFRAL protein, R&D catalogue no. 9647-GR-050) was injected at 100, 25, 6.25, 1.56, 0.39, 0.098, 0.024 and 0 nM for 120 seconds association time at […] and dissociation was monitored for 1200 seconds. The chip surface was regenerated using 10 mM glycine pH 1.5. All experiments were performed at 25° C. Sensorgrams for each antibody were double subtracted (reference cell and 0 concentration). Data were fitted to a 1:1 binding interaction model. Sensorgrams were fitted using multiple cycle kinetics mode. […] FIG. 5.

[2] = biological target: T1, His-tagged human GFRAL (recombinant …); test: SPR sandwich assay: row antibody captured via anti-Fc, GFRAL antigen added, then GDF15 injected as analyte (competitor: GDF15)
Experimental: (§2) In this assay, pairs of antibodies are tested for their ability to simultaneously bind antigen. A first antibody is coupled via its Fc region to a solid support and the GFRAL antigen is added in solution, allowing formation of an antibody-antigen complex. A second antibody is then added in solution.
The same principle may be used to assess whether an antibody and a native ligand compete for binding to antigen. Thus, a test antibody is coupled to a solid support and the GFRAL antigen is added in solution, allowing formation of an antibody-GFRAL complex. GDF15 is then added in solution.

[3] = biological target: T2, mouse GFRAL-Fc fusion (R&D catalogue no. 9844-GR-050050) (mouse, UniProt Q6SJE0 20-349); test: SPR, antibody captured via anti-human Fc, mouse GFRAL-Fc fusion as analyte, method of Example 2
T2 construct: Bought fusion protein; not shown: Fc part of the bought fusion
T2 sequence: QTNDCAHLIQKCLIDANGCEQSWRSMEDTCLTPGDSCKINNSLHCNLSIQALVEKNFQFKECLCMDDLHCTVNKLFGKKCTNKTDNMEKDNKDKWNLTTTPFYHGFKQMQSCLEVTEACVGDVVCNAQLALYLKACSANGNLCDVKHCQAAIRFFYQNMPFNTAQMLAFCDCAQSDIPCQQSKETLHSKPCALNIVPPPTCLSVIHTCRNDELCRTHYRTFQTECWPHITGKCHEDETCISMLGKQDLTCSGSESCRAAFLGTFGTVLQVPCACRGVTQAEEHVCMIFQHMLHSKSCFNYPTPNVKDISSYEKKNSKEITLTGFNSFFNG
Experimental: as §1
Affinity for mouse GFRAL was determined by SPR by the same method as in Example 2 using a mouse GFRAL-Fc fusion (R&D catalogue no. 9844-GR-050050) as analyte. FIG. 6.

[4] = biological target: T2, mouse GFRAL-Fc fusion (R&D catalogue …); test: SPR, KD for mouse GFRAL compared with KD for human GFRAL
[5] = biological target: T1, His-tagged human GFRAL (recombinant …); test: SPR sandwich assay: row antibody captured via anti-Fc, GFRAL antigen added, then mAbQ injected as analyte (competitor: mAb Q)
Experimental: as §2

[6] = biological target: T3, human GFRAL expressed on the surface of HEK293 cells (co-expressed with human RET) (human, UniProt Q6UXV0 19-394); test: cell-based or functional assay
T3 sequence: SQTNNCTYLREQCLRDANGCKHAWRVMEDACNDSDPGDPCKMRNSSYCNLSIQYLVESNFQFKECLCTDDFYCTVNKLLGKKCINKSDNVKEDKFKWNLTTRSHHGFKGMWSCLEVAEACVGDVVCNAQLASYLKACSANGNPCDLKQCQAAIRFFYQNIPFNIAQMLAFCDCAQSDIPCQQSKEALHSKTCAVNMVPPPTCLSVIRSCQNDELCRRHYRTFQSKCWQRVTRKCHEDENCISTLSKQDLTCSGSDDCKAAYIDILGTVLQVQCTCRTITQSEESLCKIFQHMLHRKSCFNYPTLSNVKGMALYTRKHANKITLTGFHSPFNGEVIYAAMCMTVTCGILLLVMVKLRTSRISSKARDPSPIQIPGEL

[7] = biological target: T3, human GFRAL expressed on the surface of …; test: cell-based or functional assay; remark: listed apart in the source
[8] = biological target: T1, His-tagged human GFRAL (recombinant …); test: SPR, KD for human GFRAL of QUEL-0301 compared with reference antibody mAb Q

B1: QUEL-0201 (antibody, V domains shown)
VH: QVQLVQSGAEVKEPGASVRVSCKASGYTFISHAIHWVRQAPGQRLEWMGWINAVNGNTKYSQKFQDRVTFTRDTSASTAYMDLNSLRAEDTALYYCAREGYTYGVHYSYGMDVWGQGTTVTVSS
VL: QSVLTQPPSVSGAPGQRVTISCTGSSSNIGAGYDVHWYQQLPGTVLKLLIYGNNNRPSGVPDRFSGSNSGTSASLAITGLQPEDEADYYCQSYDSSLSGYWVFGGGTKLTVL
notes: the antibody was captured via anti-human Fc antibody
- Kd [1]: 0.0839 nM
- koff [1]: 6.19e-05 s⁻¹
- kon [1]: 738000 M⁻¹ s⁻¹
- resonance units after GDF15 injection [2]: 83.9 resonance units
- Kd [3]: 0.0648 nM
- koff [3]: 9.9e-06 s⁻¹
- kon [3]: 153000 M⁻¹ s⁻¹
- fold difference in affinity, human against mouse GFRAL [4]: ≤ 1.5 fold
- resonance units after mAbQ injection [5]: 268 resonance units
- IC50 (ERK phosphorylation HTRF assay, 4 nM GDF15) [6]: 8.6 nM

B3: QUEL-0101 (antibody, V domains shown)
VH: QVQLVESGGGVVQPGRSLRLSCAASGFAFNNYGMHWVRQGPGRGLEWVAIISYDGTTQYSVDSVKGRFTISRDNSKNTLYLQMNSLRTEDTALYYCAKEAGDFYGSGNYGYHKYGLDVWGQGTTVTVSS
VL: DIQMTQSPSSLSASVGDRVTITCRASQDISNYLAWYQQKPGKIPKLLIYAASTLQSGVPSRFSGSGSGTDFTLTISSLQPEDVASYYCQKYSSAPLTFGGGTKVEIK
notes: as for B1
- Kd [1]: 0.14 nM
- koff [1]: 7.87e-05 s⁻¹
- kon [1]: 561000 M⁻¹ s⁻¹
- resonance units after GDF15 injection [2]: 87.3 resonance units
- Kd [3]: 1.19 nM
- koff [3]: 0.000112 s⁻¹
- kon [3]: 93700 M⁻¹ s⁻¹
- fold difference in affinity, human against mouse GFRAL [4]: ≤ 10 fold
- resonance units after mAbQ injection [5]: 306 resonance units
- IC50 (ERK phosphorylation HTRF assay, 4 nM GDF15) [6]: 2.8 nM

More lines, now with the values ahead:

- EC50 (read off the curve) [7]: ~1 nM
B2: recombinant human GDF15 protein with 6-His tag (R&D Systems, 957-GD) (ligand, UniProt Q99988 197-308, looked up)
chain: ARNGDHCPLGPGRCCRLHTVRASLEDLGWADWVLSPREVQVTMCIGACPSQFRAANMHAQIKTSLHRLKPDTVPAPCCVPASYNPMVLIQKTDTGVSLQTYDDLLAKDCHCI

- Kd [1]: 0.000988 nM
- koff [1]: 9.72e-06 s⁻¹
- kon [1]: 9.83e+06 M⁻¹ s⁻¹
- resonance units after GDF15 injection [2]: 77.3 resonance units
- fold difference in affinity against mAb Q [8]: ~4 fold
- Kd [3]: 4.95 nM
- koff [3]: 0.000524 s⁻¹
- kon [3]: 106000 M⁻¹ s⁻¹
- resonance units after mAbQ injection [5]: 298 resonance units
- IC50 (ERK phosphorylation HTRF assay, 4 nM GDF15) [6]: 9.4 nM
B4: QUEL-0301 (antibody, V domains shown)
VH: EVQLVESGGGLVQPGGSLRLSCAASGFTFSNSWMNWVRQTPGKGLEWVANIDQDGDQKYYVDSVKGRFTISRDNAKNSLYLQMNSLRAEDTAVYYCAREITGTTFDYWGQGTLVTVSS
VL: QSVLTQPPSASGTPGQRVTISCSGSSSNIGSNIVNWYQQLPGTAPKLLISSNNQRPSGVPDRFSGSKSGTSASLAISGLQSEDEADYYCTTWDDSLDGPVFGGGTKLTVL
notes: as for B1
